B1: His-ADNP2 (natural protein, human, UniProt Q6IQ32 1-1131, looked up)
chain: MFQIPVENLDNIRKVRKKVKGILVDIGLDSCKELLKDLKGFDPGEKYFHNTSWGDVSLWEPSGKKVRYRTKPYCCGLCKYSTKVLTSFKNHLHRYHEDEIDQELVIPCPNCVFASQPKVVGRHFRMFHAPVRKVQNYTVNILGETKSSRSDVISFTCLKCNFSNTLYYSMKKHVLVAHFHYLINSYFGLRTEEMGEQPKTNDTVSIEKIPPPDKYYCKKCNANASSQDALMYHILTSDIHRDLENKLRSVISEHIKRTGLLKQTHIAPKPAAHLAAPANGSAPSAPAQPPCFHLALPQNSPSPAAGQPVTVAQGAPGSLTHSPPAAGQSHMTLVSSPLPVGQNSLTLQPPAPQPVFLSHGVPLHQSVNPPVLPLSQPVGPVNKSVGTSVLPINQTVRPGVLPLTQPVGPINRPVGPGVLPVSPSVTPGVLQAVSPGVLSVSRAVPSGVLPAGQMTPAGQMTPAGVIPGQTATSGVLPTGQMVQSGVLPVGQTAPSRVLPPGQTAPLRVISAGQVVPSGLLSPNQTVSSSAVVPVNQGVNSGVLQLSQPVVSGVLPVGQPVRPGVLQLNQTVGTNILPVNQPVRPGASQNTTFLTSGSILRQLIPTGKQVNGIPTYTLAPVSVTLPVPPGGLATVAPPQMPIQLLPSGAAAPMAGSMPGMPSPPVLVNAAQSVFVQASSSAADTNQVLKQAKQWKTCPVCNELFPSNVYQVHMEVAHKHSESKSGEKLEPEKLAACAPFLKWMREKTVRCLSCKCLVSEEELIHHLLMHGLGCLFCPCTFHDIKGLSEHSRNRHLGKKKLPMDYSNRGFQLDVDANGNLLFPHLDFITILPKEKLGEREVYLAILAGIHSKSLVPVYVKVRPQAEGTPGSTGKRVSTCPFCFGPFVTTEAYELHLKERHHIMPTVHTVLKSPAFKCIHCCGVYTGNMTLAAIAVHLVRCRSAPKDSSSDLQAQPGFIHNSELLLVSGEVMHDSSFSVKRKLPDGHLGAEDQRHGEEQPPILNADAAPGPEKVTSVVPFKRQRNESRTEGPIVKDEALQILALDPKKYEGRSYEEKKQFLKDYFHKKPYPSKKEIELLSSLFWVWKIDVASFFGKRRYICMKAIKNHKPSVLLGFDMSELKNVKHRLNFEYEP
notes: ADNP2, human, full length, amino acid residues 1-1131; pFast-Bac-derived vector; also called full-length human ADNP2; source: Trichoplusia ni High5 cells (baculovirus), coexpressed with Strep-HP1β; in lysate for the pull-down, Strep-Tactin eluate for SEC-MALS; not shown: His6, N-terminal, kept

Columns and labels:
[1] = molecular target: T1, His-CHD4 (human, UniProt Q14839 1-1912); assay: SEC-MALS; Strep-Tactin eluate, ~4-5 mg/mL, Superose 6 Increase 10/300 GL, 50 mM HEPES-OH pH 7.4, 150 mM NaCl, 0.5 mM TCEP; settings: both partners purified
T1 construct: CHD4, human, full length, amino acid residues 1-1912; pAC8-derived vector; also called full-length human CHD4; source: Trichoplusia ni High5 cells (baculovirus), expressed separately; in lysate for the pull-down, Strep-Tactin eluate for SEC-MALS; not shown: His6, N-terminal, kept

[2] = molecular target: B1; assay: pull-down; High5 cell pools (His-ADNP2 + Strep-HP1β coexpressed; His-CHD4 separately) mixed and lysed; cleared lysate over Strep-Tactin sepharose, 50 mM Tris pH 7.5, 300 mM NaCl, 0.1% Triton X-100; eluted with 2.5 mM desthiobiotin; SDS-PAGE and Coomassie staining; settings: partners not purified

T1 sequence (Q14839 whole entry, the tested form may be a part): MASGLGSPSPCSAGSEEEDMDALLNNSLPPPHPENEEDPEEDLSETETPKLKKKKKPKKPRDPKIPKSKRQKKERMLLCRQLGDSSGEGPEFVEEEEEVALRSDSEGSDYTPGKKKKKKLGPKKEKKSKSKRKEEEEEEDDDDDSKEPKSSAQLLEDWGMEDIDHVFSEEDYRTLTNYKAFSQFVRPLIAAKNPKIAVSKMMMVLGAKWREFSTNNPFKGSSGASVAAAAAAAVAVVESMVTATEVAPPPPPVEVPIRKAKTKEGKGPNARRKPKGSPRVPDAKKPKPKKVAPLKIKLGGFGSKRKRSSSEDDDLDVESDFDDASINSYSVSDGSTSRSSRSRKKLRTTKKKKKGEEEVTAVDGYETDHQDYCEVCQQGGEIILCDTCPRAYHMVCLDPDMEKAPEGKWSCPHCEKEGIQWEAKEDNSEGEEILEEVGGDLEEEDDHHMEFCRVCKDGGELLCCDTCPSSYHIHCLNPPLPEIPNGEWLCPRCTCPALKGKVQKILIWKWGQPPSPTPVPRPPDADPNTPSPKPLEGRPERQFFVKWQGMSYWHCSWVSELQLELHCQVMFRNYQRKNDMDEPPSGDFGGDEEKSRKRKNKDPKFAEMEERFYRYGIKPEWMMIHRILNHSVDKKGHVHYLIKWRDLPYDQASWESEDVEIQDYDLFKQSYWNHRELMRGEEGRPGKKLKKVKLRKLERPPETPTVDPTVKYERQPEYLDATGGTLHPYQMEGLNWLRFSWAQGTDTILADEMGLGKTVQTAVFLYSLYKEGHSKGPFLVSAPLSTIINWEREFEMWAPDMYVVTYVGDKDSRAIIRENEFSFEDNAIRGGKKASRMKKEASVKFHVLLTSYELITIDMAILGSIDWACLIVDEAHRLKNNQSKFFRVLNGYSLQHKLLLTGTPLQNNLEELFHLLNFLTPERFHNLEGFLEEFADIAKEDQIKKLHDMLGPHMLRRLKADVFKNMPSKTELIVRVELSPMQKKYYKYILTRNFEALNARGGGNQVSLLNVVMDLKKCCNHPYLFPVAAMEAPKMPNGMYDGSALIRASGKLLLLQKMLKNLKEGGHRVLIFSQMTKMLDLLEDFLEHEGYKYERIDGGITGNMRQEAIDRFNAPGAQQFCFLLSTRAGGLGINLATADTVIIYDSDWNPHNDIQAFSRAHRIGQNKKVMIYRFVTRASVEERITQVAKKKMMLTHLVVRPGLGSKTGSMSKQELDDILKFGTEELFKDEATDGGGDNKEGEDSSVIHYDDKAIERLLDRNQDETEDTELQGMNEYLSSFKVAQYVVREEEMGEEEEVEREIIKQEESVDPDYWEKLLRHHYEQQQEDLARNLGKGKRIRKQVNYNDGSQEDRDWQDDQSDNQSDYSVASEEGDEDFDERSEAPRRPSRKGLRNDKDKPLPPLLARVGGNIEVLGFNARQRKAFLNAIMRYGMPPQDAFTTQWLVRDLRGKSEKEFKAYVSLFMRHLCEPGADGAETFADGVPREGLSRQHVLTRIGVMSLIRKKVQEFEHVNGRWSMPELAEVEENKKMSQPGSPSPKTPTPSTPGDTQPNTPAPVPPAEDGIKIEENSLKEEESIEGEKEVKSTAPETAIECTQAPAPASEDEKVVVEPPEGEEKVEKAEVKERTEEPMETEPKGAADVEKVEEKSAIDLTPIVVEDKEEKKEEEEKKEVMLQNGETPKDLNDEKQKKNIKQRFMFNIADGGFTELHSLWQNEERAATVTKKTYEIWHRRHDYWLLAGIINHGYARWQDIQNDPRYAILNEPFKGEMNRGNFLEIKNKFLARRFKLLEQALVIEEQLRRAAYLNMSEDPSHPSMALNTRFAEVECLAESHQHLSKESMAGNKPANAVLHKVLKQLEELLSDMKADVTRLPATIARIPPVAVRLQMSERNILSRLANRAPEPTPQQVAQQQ

| Binder | binding result [1] | binding result [2] |
| --- | --- | --- |
| Strep-HP1β (natural protein, HP1β (CBX1), human, full length, amino acid residues 1-185; pFast-Bac-derived vector; also called full-length human HP1β; source: Trichoplusia ni High5 cells (baculovirus), coexpressed with His-ADNP2; in lysate for the pull-down, Strep-Tactin eluate for SEC-MALS; not shown: Strep tag II, N-terminal, kept) not shown | binds | binds |
| B1 | binds |  |

— article PMC11293393, “ChAHP2 and ChAHP control diverse retrotransposons by complementary activities” (Genes & Development, 2024)
